This is an account of results in patent US20250044282A1.

This assay has as its target HIV-1 integrase fused to HA tag at the C terminus (INHA) (HIV-1 LAI (BRU)) (UniProt P03367).

“HIV-1 CA (capsid protein) (from UniProt P03348 133-363)” gave a percentage of colocalization of 70%.
